Like-named read-outs stand apart in the source and are kept apart here.
Columns and labels:
[1] = biological target: LS-αβICD, heteropentamer of two LS-αICD and three LS-βICD chains (Saccharomyces cerevisiae | rat) (UniProt P50861); experiment: ITC
[2] = biological target: LS-αβICD, heteropentamer of two LS-αICD and three LS-βICD chains (Saccharomyces cerevisiae | rat) (UniProt P50861); experiment: SEC
[3] = biological target: LS-αβICD, heteropentamer of two LS-αICD and three LS-βICD chains (Saccharomyces cerevisiae | rat) (UniProt P50861); experiment: SEC; remark: listed apart in the source
[4] = biological target: LS-αβICD, heteropentamer of two LS-αICD and three LS-βICD chains (Saccharomyces cerevisiae | rat) (UniProt P50861); experiment: SEC; remark: listed apart in the source
[5] = biological target: unmodified lumazine synthase from Saccharomyces cerevisiae (LS^wt) (Saccharomyces cerevisiae) (UniProt P50861); experiment: AUC
[6] = biological target: unmodified lumazine synthase from Saccharomyces cerevisiae (LS^wt) (Saccharomyces cerevisiae) (UniProt P50861); experiment: SEC
[7] = biological target: LS-αICD chain of the co-expression construct (pETDuet1, first cloning site) (Saccharomyces cerevisiae | rat) (UniProt P50861); experiment: densitometry of Coomassie-stained SDS-PAGE bands of the purified complex; details: scale: βICD chains to 2 αICD chains in the pentamer

gephyrin E-domain (GephE) dimer (domain or fragment)
Kd [1]: 0.68 µM
stoichiometry N [1]: 0.41

full-length rat gephyrin splice variant rC4 (natural protein)
amount of gephyrin bound [2]: 4 nmol
Kd [1]: 0.49 µM
stoichiometry N [1]: 0.57
stoichiometry N (gephyrin trimers to 3 LS pentamers) [3]: 4
amount of gephyrin bound [4]: 3 nmol
percent of gephyrin bound [4]: 75%
stoichiometry N (gephyrin trimer per LS pentamer) [4]: 1
stoichiometry N (gephyrin trimers to 3 LS pentamers) [4]: 3

unmodified lumazine synthase from Saccharomyces cerevisiae (LS^wt) (from UniProt P50861 2-169) (enzyme)
stoichiometry N [5]: 5
stoichiometry N [6]: 5

LS-βICD chain of the co-expression construct (pETDuet1, second cloning site) (from UniProt P50861 1-138; P50861 139-169)
stoichiometry N [7]: 3
